Laboratory results: patent US20040209257

System: T1, AcuI restriction endonuclease (recombinant, clone #288) V1M (Acinetobacter calcoaceticus SRW4)
T1 sequence: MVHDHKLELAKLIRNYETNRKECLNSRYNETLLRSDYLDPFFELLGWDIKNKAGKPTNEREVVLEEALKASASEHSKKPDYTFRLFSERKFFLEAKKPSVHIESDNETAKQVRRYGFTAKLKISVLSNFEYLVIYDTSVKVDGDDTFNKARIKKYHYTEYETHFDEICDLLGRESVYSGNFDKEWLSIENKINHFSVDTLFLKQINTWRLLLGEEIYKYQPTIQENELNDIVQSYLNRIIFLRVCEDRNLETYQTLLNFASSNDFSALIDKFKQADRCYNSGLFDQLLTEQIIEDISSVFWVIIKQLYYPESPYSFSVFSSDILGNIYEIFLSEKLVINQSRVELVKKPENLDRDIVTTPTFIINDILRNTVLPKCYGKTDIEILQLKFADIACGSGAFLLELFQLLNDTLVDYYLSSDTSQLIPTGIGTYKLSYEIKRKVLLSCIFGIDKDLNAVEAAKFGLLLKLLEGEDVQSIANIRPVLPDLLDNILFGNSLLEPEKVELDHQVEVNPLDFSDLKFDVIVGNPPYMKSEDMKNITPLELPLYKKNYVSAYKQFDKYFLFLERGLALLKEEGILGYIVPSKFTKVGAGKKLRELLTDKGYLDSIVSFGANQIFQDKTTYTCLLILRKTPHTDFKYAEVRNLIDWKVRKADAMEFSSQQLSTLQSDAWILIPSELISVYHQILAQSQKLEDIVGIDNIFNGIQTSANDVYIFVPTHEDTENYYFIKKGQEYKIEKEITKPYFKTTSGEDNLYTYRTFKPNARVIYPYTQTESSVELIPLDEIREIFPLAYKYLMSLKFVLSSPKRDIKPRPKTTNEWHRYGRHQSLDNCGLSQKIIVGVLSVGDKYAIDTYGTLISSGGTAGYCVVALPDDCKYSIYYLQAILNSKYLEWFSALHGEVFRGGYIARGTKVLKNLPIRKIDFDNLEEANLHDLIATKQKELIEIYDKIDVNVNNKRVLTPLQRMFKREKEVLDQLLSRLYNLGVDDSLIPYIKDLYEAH
Test: cleavage_in_vitro
Conditions: cell extract; lambda DNA substrate

## lambda DNA
  activity (units per gram wet cells): 17400
